Measured values from the RNAGym collection of RNA variant scans (doi:10.7554/elife.80360).

B1: Hairpin Ribozyme (parent)
chain: GUCCUCUUUCACGUGCGCGUGAAAGAGAGAAGUGAACCAGAGAAACACACGUUGUGGUAUAUUACCUGGUA

Variants of: B1
Experiment: self-cleavage, relative activity (ratio to wild type); higher = more cleavage; co-transcriptional

| Variant | self-cleavage |
| --- | --- |
| G15A A30G | 0.187 |
| U14G A22G | 0.798 |
| U14G A22U | 0.683 |
| U14C U70G | 0.679 |
| U14A A24U | 0.644 |
| G15A A31U | 0.133 |
| G15A A31G | 0.586 |
| G13C U62G | 0.185 |
| G13C U62A | 0.143 |
| U14A A45G | 0.0459 |
| U14C U60C | 1.13 |
| G15A U33A | 0.0921 |
| G15A U33C | 0.117 |
| U14C A41U | 1.34 |
| G13U A23C | 0.557 |
| U14G A43G | 0.0894 |
| U14G A43U | 0.186 |
| G13C G40A | 0.299 |
| G13C G40C | 0.11 |
| U14A A28C | 0.454 |
| U14G G42C | 0.101 |
| U14C G51A | 0.854 |
| U14C G51U | 1.07 |
| U14A G42A | 0.108 |

| Variant | self-cleavage |
| --- | --- |
| U14A C50A | 0.13 |
| U14A C50U | 0.397 |
| G15A A35G | 0.934 |
| G13U A59C | 0.161 |
| G13U A59U | 0.181 |
| G13C C38G | 0.179 |
| G13C C38A | 0.2 |
| G13C C38U | 0.384 |
| U14C A61C | 0.162 |
| U14C A61G | 0.133 |
| U14A A61C | 0.331 |
| G13U C37A | 0.249 |
| G13U C37U | 0.443 |
| G13U C37G | 0.384 |
| U14G G34C | 1.52 |
| G13U U63G | 0.257 |
| G13C G21U | 0.49 |
| G13U A39G | 0.273 |
| G15A C18U | 1.05 |
| G15A A43G | 0.155 |
| G15A A43U | 0.178 |
| G13U A41U | 1.15 |
| G13U A41G | 0.752 |
| G13C G27C | 0.161 |

| Variant | self-cleavage |
| --- | --- |
| U14A A31U | 0.124 |
| U14G A59C | 0.0613 |
| U14G A59U | 0.183 |
| G13U U62A | 0.179 |
| G15A G42A | 0.15 |
| G15A G40U | 0.111 |
| G15A G56U | 0.134 |
| U14G C50G | 0.2 |
| U14G C50U | 0.2 |
| G13C U60G | 0.479 |
| U14C A22G | 0.864 |
| G13U U53A | 0.777 |
| G15A U20G | 0.85 |
| U14G A61G | 0.0735 |
| U14G A61C | 0.257 |
| U14G A61U | 0.2 |
| G13U U20C | 1.03 |
| G13U U20A | 0.73 |
| U14A G27C | 0.196 |
| U14A G27U | 0.192 |
| U14A G27A | 0.39 |
| G15A G29C | 0.106 |
| U14C A45U | 0.119 |
| G15A A47C | 0.302 |

| Variant | self-cleavage |
| --- | --- |
| G15A A44U | 0.196 |
| G15A A44C | 0.143 |
| G13U U58C | 0.919 |
| G13U U58A | 0.808 |
| U14G A30U | 0.175 |
| G15A G27C | 0.146 |
| U14A A71U | 0.645 |
| U14A A71C | 1.34 |
| U14A C46U | 0.126 |
| G15A U58A | 0.533 |
| U14C A26G | 0.919 |
| U14C A26U | 0.418 |
| U14C A26C | 0.727 |
| G13U U67G | 0.241 |
| G13U G19A | 0.73 |
| U14A A36C | 0.502 |
| U14A A36U | 0.582 |
| U14A G54C | 0.338 |
| G15A A49U | 0.149 |
| G15A A49G | 0.527 |
| G13U A43U | 0.127 |
| G13U A43G | 0.186 |
| U14C U62G | 0.218 |
| U14C U62A | 0.142 |

| Variant | self-cleavage |
| --- | --- |
| U14C U62C | 0.0439 |
| U14G A47U | 0.105 |
| U14G C18U | 0.7 |
| U14G G17A | 0.854 |
| G13U U33A | 0.105 |
| U14C G69A | 0.341 |
| G13U A47U | 0.129 |
| G13U A47G | 0.143 |
| G13U A47C | 0.326 |
| U14C C50A | 0.0893 |
| G13C G15C | 0.541 |
| G13C G15A | 0.74 |
| U14C U67C | 0.227 |
| U14C A49G | 0.553 |
| U14A C48G | 0.196 |
| U14A C48A | 0.179 |
| U14G U53A | 0.835 |
| G13C C16G | 0.407 |
| U14A A47G | 0.153 |
| U14A A23U | 0.701 |
| U14A C38A | 0.171 |
| U14C A28U | 0.668 |
| G13U | 0.763 |
| U14G A23G | 0.703 |

| Variant | self-cleavage |
| --- | --- |
| U14C G21A | 0.865 |
| U14G G57U | 0.234 |
| G15A A28G | 0.978 |
| G15A A28C | 0.586 |
| G15A C16U | 1.01 |
| U14G G29A | 0.0483 |
| U14G G29U | 0.151 |
| G13U G69C | 0.198 |
| U14C U52C | 0.938 |
| U14G G27U | 0.144 |
| G13U U14C | 0.544 |
| U14A G19A | 0.756 |
| G15A G69U | 0.217 |
| G15A G69A | 0.362 |
| U14A G21C | 0.467 |
| U14G A64C | 0.27 |
| U14C G56U | 0.126 |
| U14C G56C | 0.163 |
| U14G A71U | 0.678 |
| G13U C48G | 0.106 |
| G13U G25C | 0.274 |
| U14G U52G | 0.507 |
| G13C G57U | 0.164 |
| G13C A64U | 0.128 |

| Variant | self-cleavage |
| --- | --- |
| G13C A64G | 0.448 |
| U14G C66A | 0.0772 |
| G13U G56C | 0.12 |
| G15A C38A | 0.148 |
| G15A C38G | 0.297 |
| G13U C18G | 0.722 |
| G13U A49G | 0.483 |
| U14G A26U | 0.549 |
| U14G A26C | 0.522 |
| U14C A24G | 0.81 |
| U14C A24C | 0.943 |
| U14C A24U | 0.545 |
| U14G G56C | 0.164 |
| U14C C48A | 0.256 |
| U14C C48U | 0.117 |
| G13C U53G | 0.245 |
| U14C | 0.982 |
| U14G | 0.813 |
| U14A | 0.956 |
| U14C C38G | 0.246 |
| U14C G27A | 0.423 |
| U14G G54A | 0.439 |
| G13U A61U | 0.181 |
